Experimental data published in patent US20220127354A1 (Amgen, published 2022).

Experiments:
Test in all cases: flow cytometry, transfected 293T cells
[1] = target: T1, muCDH19(44-139)::huCDH19(142-249)::muCDH19(248-770) with Flag tag (construct D, Hu EC2) (human/mouse chimera)
T1 construct: leader left out; the entry starts at residue 44; also called C137913
T1 chain: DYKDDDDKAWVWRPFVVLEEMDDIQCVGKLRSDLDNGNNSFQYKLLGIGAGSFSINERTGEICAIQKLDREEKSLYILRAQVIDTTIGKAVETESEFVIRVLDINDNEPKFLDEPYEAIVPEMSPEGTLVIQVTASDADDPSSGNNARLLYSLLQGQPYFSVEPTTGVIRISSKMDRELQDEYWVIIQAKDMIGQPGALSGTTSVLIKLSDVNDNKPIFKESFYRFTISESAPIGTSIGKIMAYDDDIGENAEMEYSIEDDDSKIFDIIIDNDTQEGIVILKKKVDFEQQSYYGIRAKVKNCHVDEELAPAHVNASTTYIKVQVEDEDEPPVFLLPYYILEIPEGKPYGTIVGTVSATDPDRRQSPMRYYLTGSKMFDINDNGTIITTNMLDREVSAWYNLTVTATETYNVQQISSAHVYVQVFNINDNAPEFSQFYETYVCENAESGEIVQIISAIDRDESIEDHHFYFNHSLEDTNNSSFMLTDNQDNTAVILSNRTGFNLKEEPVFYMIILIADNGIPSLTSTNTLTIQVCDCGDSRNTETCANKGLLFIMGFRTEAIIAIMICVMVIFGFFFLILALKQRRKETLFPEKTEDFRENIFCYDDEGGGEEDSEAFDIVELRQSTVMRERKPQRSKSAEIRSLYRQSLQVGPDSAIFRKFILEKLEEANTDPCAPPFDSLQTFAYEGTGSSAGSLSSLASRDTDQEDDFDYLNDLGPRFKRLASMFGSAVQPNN
Text: (§1) The experiment included assaying the anti-CDH19 antibodies against mouse Cadherin19 to determine suitability for binning on these human/mouse chimeras.

[2] = target: T2, muCDH19(44-461)::huCDH19(464-772) with Flag tag (construct H, Hu EC5) (human/mouse chimera)
T2 construct: leader left out; the entry starts at residue 44; also called C137915
T2 chain: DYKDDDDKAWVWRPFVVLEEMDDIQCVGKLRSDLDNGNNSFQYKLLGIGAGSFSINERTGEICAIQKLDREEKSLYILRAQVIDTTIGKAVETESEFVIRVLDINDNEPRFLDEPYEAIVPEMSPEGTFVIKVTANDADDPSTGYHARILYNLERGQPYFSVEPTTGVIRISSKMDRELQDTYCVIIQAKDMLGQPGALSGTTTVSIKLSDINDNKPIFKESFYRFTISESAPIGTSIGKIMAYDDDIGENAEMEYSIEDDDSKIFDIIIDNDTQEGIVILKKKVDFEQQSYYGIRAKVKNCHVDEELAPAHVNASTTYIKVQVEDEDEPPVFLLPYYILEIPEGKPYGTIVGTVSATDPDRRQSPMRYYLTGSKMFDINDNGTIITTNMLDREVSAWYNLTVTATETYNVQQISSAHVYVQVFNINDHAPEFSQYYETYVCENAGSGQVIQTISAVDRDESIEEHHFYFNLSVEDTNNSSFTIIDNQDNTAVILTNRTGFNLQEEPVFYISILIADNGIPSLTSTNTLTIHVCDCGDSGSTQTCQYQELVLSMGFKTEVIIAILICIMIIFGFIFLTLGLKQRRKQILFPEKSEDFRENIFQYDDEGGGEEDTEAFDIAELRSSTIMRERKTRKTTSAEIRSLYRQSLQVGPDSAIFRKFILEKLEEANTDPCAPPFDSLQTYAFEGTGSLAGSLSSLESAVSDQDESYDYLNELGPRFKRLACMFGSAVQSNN
Text: as §1

[3] = target: T3, muCDH19(44-362)::huCDH19(365-772) with Flag tag (construct G, Hu EC4-5) (human/mouse chimera)
T3 construct: leader left out; the entry starts at residue 44; also called C137917
T3 chain: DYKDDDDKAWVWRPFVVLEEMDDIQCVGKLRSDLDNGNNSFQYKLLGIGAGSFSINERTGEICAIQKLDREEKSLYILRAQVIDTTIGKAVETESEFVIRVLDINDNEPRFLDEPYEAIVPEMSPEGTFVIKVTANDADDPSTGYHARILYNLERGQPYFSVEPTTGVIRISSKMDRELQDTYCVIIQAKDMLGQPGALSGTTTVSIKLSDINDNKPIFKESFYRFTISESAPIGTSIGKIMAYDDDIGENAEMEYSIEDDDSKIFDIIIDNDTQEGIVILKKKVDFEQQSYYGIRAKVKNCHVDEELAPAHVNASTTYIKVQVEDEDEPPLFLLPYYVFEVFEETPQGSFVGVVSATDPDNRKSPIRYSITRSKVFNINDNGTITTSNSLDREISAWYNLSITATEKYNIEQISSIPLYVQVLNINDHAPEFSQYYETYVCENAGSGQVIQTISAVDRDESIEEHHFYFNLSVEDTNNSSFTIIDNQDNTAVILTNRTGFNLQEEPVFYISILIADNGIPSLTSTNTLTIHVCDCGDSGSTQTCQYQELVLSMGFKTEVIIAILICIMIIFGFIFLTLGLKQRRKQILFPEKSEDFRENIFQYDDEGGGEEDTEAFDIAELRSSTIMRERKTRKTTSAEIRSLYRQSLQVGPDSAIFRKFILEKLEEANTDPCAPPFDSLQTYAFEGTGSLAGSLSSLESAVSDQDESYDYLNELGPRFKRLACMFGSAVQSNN
Text: as §1

Measured: binding result

B1: anti-CDH19 antibody 2G6 (Ab ID 13588) (antibody, human IgG1, lambda, V domains shown)
VH: QVQLVESGGGVVQPGRSLRLSCAASGFTFSSYGMHWVRQAPGKGLEWVAFIWYDGSNKYYADSVKDRFTISRDNSKNTLYLQMKSLRAEDTAVYYCARRAGIIGTIGYYYGMDVWGQGTTVTVSS
VL: SYELTQPPSVSVSPGQTASITCSGDRLGEKYTCWYQQRPGQSPLLVIYQDTKRPSGIPERFSGSNSGNTATLTISGTQAMDEADYYCQAWDSSTVVFGGGTKLTVLG
notes: Bin 4
binds: all assays above
